Test results from the nanobody polyreactivity screen of Harvey et al. (2022).

test: yeast display, Sf9 membrane polyspecificity reagent, FACS + sequencing; frameworks hold sequencing errors
Outline: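 Synthetic nanobody libraries on Saccharomyces cerevisiae BJ5465 were galactose-induced for 36–48 hours, stained 1 hour at 4 °C with 10% biotinylated, detergent-solubilized Sf9 membrane reagent and enriched on streptavidin microbeads. FACS then separated cells into low and high (top ~1%) gates by anti-HA (expression) and streptavidin (reagent binding) fluorescence. Genes were colony-PCR amplified, MiSeq 2 × 250 sequenced and CDR-length filtered. A clone's polyreactivity label is that of its gate of origin.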

Sequence	polyreactivity (PSR sort gate)
QVQLVESGGGLVQAGGSLRLSCAASGSIFRRYAMGWYRQAPGKERELVAGISSGGYTNYADSVKGRFTISRDNAKNTVYLQMNSLKPEDTAVYYCAAKQYRYVRYRPVDYWGQGTQVTVSS	high polyreactivity
QVQLVESWGGLVQAGGSLRLSCAASGRIFGRYAMGWYRQAPGKERELVAAIRSTGSTNYADSVKGRFTISRDNAKNTVYLQMNSLKPEDTAVYYCAAYRRRTYAVNKEGGYWGQGTQVTVSS	high polyreactivity
QVQLVESGGVLVQAGGSLRLSCAASGRTLGTYAMGWYRQAPGKERELVAAITHSGGTTYYADSVKGRFTISRDNAKNTVYLQMNSLKPEDTAVYYCAADARFRTVSPMDYWGQGTQVTVSS	low polyreactivity
QVQLVESGGGLVQAGGSLRLSCAASGRTFKYYAMGWYRQAPGKERELVAASTTGGSTHYADSVKGRFTISRDNAKNTVYLQMNSLKPEDTAVYYCAAGPFARYDYWGQGTQVTVSS	low polyreactivity
QVQLVESGGGLVQAGGSLRLSCAASGSIFPSYAMGWYRQAPRKERELVATIGRGGTTNYADSVKGRFTISRDNAKNTVYLQMNSLKPEDTAVYSCNAERIWRYKDGYDYWGQGTQVTVSS	high polyreactivity
QVQLVESGGGLVQAGGSLRLSCAASGRTYKYYALGWYRQARGKERELVAAITSGASTNYADSVKGRFTISRDNAKNTVYLQMNSLKPEDTAVYYCAARKAYFFDRYGYWGLGTQVTVSS	high polyreactivity
QVQLVESGGGLVQAGGSLRLSCAASGYIFLNYAMGWYRQAPGKEREFVATITSSGGTTYYADSVKGRFTISRDNAKNTVYLQMNSLKPEDTAVYYCNADAGWYDWVYYVGRDYWGQGTQVTVSS	low polyreactivity
QVQLVESGGGLVQAGGSLRLSCAASGRISPNNAMGWYIPAPGKERELVAAITASGGTTYYADSVKGRFTISRDNAKYTVYLQMNSLKPEDSAVYYCAAAVWYRGWYRYDYWGQGTQVTVSS	low polyreactivity
QVQLVESGGGLVQAGGRLRLSCAASGFIFAWYAMGWYRQAPGKEMELVAAITWSAGSTYYADSVKGRFTISRDNAKNTVFLQMNSLKPEVTAVYYCAADAWYYSIYRGGDFWGQGTQVTVSS	low polyreactivity
QVQLVESGGGLVQAGGSLRLTCAASGSIFGYAMGWSRQAPGKERELVAALSFSGVSTYYAYSVKGRFTISRDNAKNTVYLQMNSLKPEDTAVYYCNAYSDGDEDYWGQGTQVTVSS	low polyreactivity
QVQLVESGGGLVQAGGSLRLSCAASGSTIKGYDMGWYRQAPGKERELVAAIDSGGSTYYADSVKGRFTISRDNAKNTVYLQMNSLKPEDTAVFYCAAERVSLYWVIFGYWGQGTQVTVSS	low polyreactivity
QVQHVESRGGLVQAGGSLRLSCDASGSTFVTYAMGWYRQAPGKERELVAAISRSGGSTYYADSVKGRFTISRDNAKNTVYLQMNSLKPEDTAVYYCAARDGYGATGHDYWGQGTQVTVSS	low polyreactivity
QVQLVESGGGLVQAGGSLRLSCAASGSTFTYYAMGWYRQAPGKERELVAAITSRGGITYYADSVKGRFTISRDNAKNTVYLQMHSLKPEDTAVYYCNAYSQRYGYYYWGQGTQVTVSS	high polyreactivity
QVQLVESGGGLVHAGGSLRLSFAASGRTFTLNAMGWYRQAPGKEREFVAAISNSGVRTYYADSVKGRFTISRDNAKNTVYLQMNSLTPEDTAVYYCDGTYQVGDSIDDYWGQGTQVTVSS	low polyreactivity
QVQLVESGGGLVQAGGSLRLSCAASGSILYIYAMGWYRQAPGKERELVAAISKNSADTYYADSVKGRFTISRDNAKNTVYLQMNSLKPEDTAVYYCAADVVKVAAYNYWGQGSQVTVSS	low polyreactivity
QVQLVESGGGLVQAGGSLRLSCAASGGTFRVYAMGWYRQAPGKERELFAAISSGGSTNYADSVKGRFTISRDNAKNTVYLQMNSLKPEDTAVYYCNAKYRYRFARSPIYYYWGQGTQVTVSS	high polyreactivity
QVQLEESGGGLVQAGGSLRLSCAASGLIFITYAMGWYRQAPGKERELVATITLRGGSTYYADSVKGRFTISRDNAKNTVYLQMNSLKPEDTAVYYCAADVGYWGRSRGYPSDDYDYWGQGTQVTVSS	low polyreactivity
QVQLVESGGGLVQAGGSLRLSCAASGRILKYYDMGWYRQAPGKERELVAAISVSGTSTYYADSVKGRFTISRDNAMNTVYLQMNSLKPEVTAVYYCATATGRYSFDYWGQGTQVTVSS	low polyreactivity
QVQLVESAGGLVQAGGSLRLTCAASGLTFRVFAMGWYRQAPGKERELVAAISSRGGSTYYADSVKGRFTISRDNAKYTVYLQMNSLKPEDTAVYDCYARGQGGYWGQGTQVTVSS	high polyreactivity
QVQLVESGGGLVQAGGRLPLSCAASGFIFGDYTMGWYRQAPGKERELVASISRRGGSTTYADSVKGRFTISRDNAMNTVYLQMNSLKPEDTAVYYCAARSRPSGSYNRHGPVDYWGQGTQVTVSS	high polyreactivity
QVQLVESGGGLVHAGGSLRLSCAASGRILGKYANGWYRQAPGKERELVAAINWRGGRTYADSVKGRFTISRDNSKNNVYLQMNSLKPEDTAVYYCAAVWQSPRPGYGYWGQGTQVTVSS	high polyreactivity
QVQLVESGGGLVQAGGSLRLSCAASGFTFVRYAMGWYRQAPGKERELVAAISSSGSSTYYADSVKGRFTISRDHEKNTVYLQMNSLKPEDTAVYYCNARAGRGEDYWGQGTQVTVSS	low polyreactivity

Sequence	polyreactivity (PSR sort gate)
QVQLVESGGGLVQAGGSLRLSCAASGTIFQENAMGWYRQAPGKERELVAAITGSGDSTYYADSVKGRFTISRDNAKNTVYLQMNSLKPEDTAVYYCAASWHTPTVYDEYYYWGQGTQVTVSS	low polyreactivity
QVQLVESGGGLDQAGCSLRLSWAASGITSYYNAMGWYRQAPGKERELVAAITSGGSTYYADSVKGRFTISRDNAKNTVYLQMNSLKPEVTAVYYCARRSRYLWRYDYWGQGTQVTVSS	high polyreactivity
QVQLVESGGGLVQAGGSLRLSCAASGRTFGFYTMGWYRQAPGKERELVAGISRGGSTTYADSVKGRFTISRDNAKNTVYLQMNSLKPEDTAVYYCNADRSHYWLPYGVRFDYWGQGTQVTVSS	low polyreactivity
QVQLVESGGGLVQAGGSHRLSCAASGRIYGDYAMGWYRQAPGKERELVAAINSSGTSTIYADSVKGRFTISRDNAKNTVYLQLNCLKPEDTAVYYCADLFTFKYDYWGQGTQVTVSS	low polyreactivity
QVQLVESGGGLVQAGGSLRISCAASGYTFKNNTMGWYRQAPGKERELVAAISVSGGSTYYADSVKGRFTISRDNAKKTVYLQMNSLKPEDTAVYYCTALREVPLFLVYIGGCYWGQGTQVTVSS	low polyreactivity
QVQLVESGGGLVQAGGSLRLSCAASGRIFGYYAMGWYRQAPGKERELVAAIRYSSGRTYYADSVKGRFTISRDNAKNTVYLQMNSLKPEDTAVYYCNAYSSTYFYNYDYWGQGTQVTVSS	high polyreactivity
QVQLVESGGGLVQAGGSLRLSCAASGFTFTVYAMGWYRQAPGKERELVAAISGIGGSTYYADSVKGRFTISRDNAKNTVYLQMNSLKPEDTAVYYCNAVSGDSGDYWGQGTQVTVSS	low polyreactivity
QVQLVESGGGLVQAGGSLRLSCAASGRTFRGNAMGWYRQAPGKERELVATITFSGGSTYYADSVKWRFTISRDNAKNTVYLQMNSLKPEDTAVYYCAVRGLHLVWVPFGYDYWGQGTQVTVSS	low polyreactivity
QVQLVESGGGLVQAGGRLRLSCAASGTIFGPYAMGWYRQAPGKEREFVAAISRSGTRTNYADSVKGRFTISRDNAKNTVYLQMNSLKPEDTAVYYCAAGYYGPDPRNRYRYNYWGQGTQVTVSS	high polyreactivity
QVQLVESGGGLVQAGGSLRLSCAASGFIFKRYAMGWYRQAPGKERELVATISNSGGRTYYADSVKWRFTISRDNAKNTVYLQMNSLKPEDTAVYYCAALPFWWGGYWGQGTQVTVSS	high polyreactivity
QDQLVESGGGLVQAGGSLRLSCAASGRTFYRYAMGWSRQAPGKERELVAVISTDGSSTYYADSVKGRFTISRDNAKNTVYLQMNSLKPVDTAVYYCAARAPESYVSTRAHYYWGQGTQVTVSS	high polyreactivity
QVQLVESGGGLVLAGGSLRLSCAASGRIFSYYAMGWYRQAPGQERELVAAISWNGGSTYYADSVKGRFTISRDNAKNTVYLQMNSLKPEDTAVYYCAVLPHYEYDYWGQGTQVTVSS	high polyreactivity
QVQLVESGGGLVQAGGSLRLSCAASGITFVGNAMGWSRQAPGKERELVAAMSSSGASTYYADSVKGRFTISRDYAKNTVYLQMNSLKPEDTAVYYCNAGWGVVIRRYPTYDYWGQGTQVTVSS	high polyreactivity
QDQLVDSGGGLVQAGGSLRLSSAASGFSYGGYAMGWYRQAPGKERELVAAISSGGGTTYADSVKGRFTISRDNAKYTVYLQMNSLKPEDTAVYYCAAVTRDYRNDRRRQRCYYWGQGTQVTVSS	high polyreactivity
QVQLVESGGGLVQAGGSLRLSCAASGRILAGYAMGWYRQAPGKERELVAVISVGTGSTYYADSVKGRFTISRDNAKNTVYLQMNSLKPEDTAVYYCAAVTAITSLRMGYWGQGTQVTVSS	low polyreactivity
QVQLVESGGGLVQAGGSLRLSCAASGITFDGYAMGWNTQAPGKEREFVAAITWNGGSTYYADSVKGRFTISRDNAKNTVYLQMNSLKPEDTAVYYCNADPFTGYDYWGQGTQVTVSS	low polyreactivity
QVQLVESGGGLVQAGGSLRLSCAASGFTFARYTMGWYRQAPGKERELVAAISSRGSSTYYADSVKGRFTISRDNAKNTVFLQMNSLKPEDTAVYYCAASPYDTQSLDYDYWGQGTQVTVSS	high polyreactivity
QVQLVESGAGLVQEGGSLRLSCAASGRIFQTYTMGWYRQAPGKERELVAAISASGGRTYYADSVKGRFTISRDNAKNTVYLQMNSLKPEDTAVYYCAADIRGYDYWGQGTQVTVSS	high polyreactivity
QLQLVESGGGLVQAGGSLRLSCAASGFIFADYAMGWYRQAPGKERELVAAISSNGGSTYYADSVKGRFTISRDNAKNTVYLQMNSLKPEDTAVYYCAVRHRYYKDYEFDYWGQGTQVTVSS	high polyreactivity
QDQHVESGGGLVQAGGSLRLSCAAPGITFYPYDMGWYRQAPGKERELVASISRSGGSTYYADSVKGRFTISRDNAKNTVYLQMNSLKPEDTAVYYCNAYSTRGMYSWGQGTQVTVSS	high polyreactivity
QVQLVESGGALVQAGGSLRLSCAASGFIFSYYVMGWYRQAPGKERELVAAITTSGDSTYYADSVKGRFTISRDNAKNTVYLQMNSLKPEDTAVYYCAADIYYETIWHYGYWGQGTQVTVSS	high polyreactivity
